Laboratory results from the supplement of paper PMC10065799, “High-throughput profiling of sequence recognition by tyrosine kinases and SH2 domains using bacterial peptide display” (eLife, 2023).

How the values were obtained:
[1] = target: SHP2-C SH2; assay: SH2 binding enrichment of the phosphorylated peptide, bacterial display (enrichment ratio); higher = better substrate or ligand; peptides without Tyr show the background
[2] = target: c-Src SH2; assay: as above
[3] = target: Grb2 SH2 (UniProt P62993); assay: as above
Chain of Grb2 SH2 (P62993 whole entry, looked up): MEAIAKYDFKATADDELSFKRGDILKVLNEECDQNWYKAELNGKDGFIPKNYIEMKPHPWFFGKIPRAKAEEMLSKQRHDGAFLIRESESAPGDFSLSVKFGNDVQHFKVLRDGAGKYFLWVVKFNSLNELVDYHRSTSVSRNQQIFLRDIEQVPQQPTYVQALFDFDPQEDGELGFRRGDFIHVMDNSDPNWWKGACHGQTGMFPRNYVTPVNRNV

[4] = test system: c-Src; assay: phosphorylation enrichment, bacterial display (enrichment ratio); higher = better substrate or ligand; peptides without Tyr show the background
[5] = target: EPHB1 (UniProt P54762); assay: as above
Chain of EPHB1 (P54762 whole entry, looked up): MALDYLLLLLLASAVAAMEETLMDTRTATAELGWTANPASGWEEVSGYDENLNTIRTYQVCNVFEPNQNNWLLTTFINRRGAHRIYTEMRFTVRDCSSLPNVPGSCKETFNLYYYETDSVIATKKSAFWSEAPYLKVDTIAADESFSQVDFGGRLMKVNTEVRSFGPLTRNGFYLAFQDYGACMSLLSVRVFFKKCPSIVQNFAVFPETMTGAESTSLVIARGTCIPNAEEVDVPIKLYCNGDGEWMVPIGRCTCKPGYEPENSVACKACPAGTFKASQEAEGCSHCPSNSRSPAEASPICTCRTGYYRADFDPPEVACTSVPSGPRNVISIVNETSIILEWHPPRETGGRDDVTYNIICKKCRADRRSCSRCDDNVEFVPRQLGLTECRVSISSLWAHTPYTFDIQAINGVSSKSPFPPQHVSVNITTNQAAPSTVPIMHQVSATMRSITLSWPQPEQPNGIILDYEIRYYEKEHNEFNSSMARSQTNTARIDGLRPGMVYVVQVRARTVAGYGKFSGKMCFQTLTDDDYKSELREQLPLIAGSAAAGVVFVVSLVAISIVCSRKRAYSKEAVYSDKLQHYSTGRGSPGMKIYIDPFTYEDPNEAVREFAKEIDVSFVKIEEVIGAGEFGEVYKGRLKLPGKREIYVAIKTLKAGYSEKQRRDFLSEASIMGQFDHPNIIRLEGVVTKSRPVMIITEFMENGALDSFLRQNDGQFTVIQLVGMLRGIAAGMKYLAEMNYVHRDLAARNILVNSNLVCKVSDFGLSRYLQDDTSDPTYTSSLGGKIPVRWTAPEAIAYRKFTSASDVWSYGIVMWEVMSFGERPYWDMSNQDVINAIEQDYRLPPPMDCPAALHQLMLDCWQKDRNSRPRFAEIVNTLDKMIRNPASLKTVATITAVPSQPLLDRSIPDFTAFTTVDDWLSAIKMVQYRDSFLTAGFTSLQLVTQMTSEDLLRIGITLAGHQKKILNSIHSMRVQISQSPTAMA

[6] = target: Fyn (UniProt P06241); assay: as above
Chain of Fyn (P06241 whole entry, looked up): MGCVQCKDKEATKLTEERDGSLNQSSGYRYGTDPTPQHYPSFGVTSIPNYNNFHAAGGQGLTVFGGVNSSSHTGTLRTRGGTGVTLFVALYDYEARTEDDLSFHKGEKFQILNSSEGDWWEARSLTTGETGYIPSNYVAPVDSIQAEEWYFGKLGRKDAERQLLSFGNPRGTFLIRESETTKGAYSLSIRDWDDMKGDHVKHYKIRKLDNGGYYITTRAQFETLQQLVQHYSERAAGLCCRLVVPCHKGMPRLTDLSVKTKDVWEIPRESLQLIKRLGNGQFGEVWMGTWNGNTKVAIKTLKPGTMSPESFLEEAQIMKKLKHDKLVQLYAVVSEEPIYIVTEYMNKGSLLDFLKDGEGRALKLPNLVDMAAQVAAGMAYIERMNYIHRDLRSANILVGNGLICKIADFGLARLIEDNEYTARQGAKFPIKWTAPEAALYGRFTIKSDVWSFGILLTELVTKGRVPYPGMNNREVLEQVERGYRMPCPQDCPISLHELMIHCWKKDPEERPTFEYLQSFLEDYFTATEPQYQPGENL

[7] = target: Jak2 (UniProt O60674); assay: as above
[8] = target: EPHB2 (UniProt P29323); assay: as above
Chain of EPHB2 (P29323 whole entry, looked up): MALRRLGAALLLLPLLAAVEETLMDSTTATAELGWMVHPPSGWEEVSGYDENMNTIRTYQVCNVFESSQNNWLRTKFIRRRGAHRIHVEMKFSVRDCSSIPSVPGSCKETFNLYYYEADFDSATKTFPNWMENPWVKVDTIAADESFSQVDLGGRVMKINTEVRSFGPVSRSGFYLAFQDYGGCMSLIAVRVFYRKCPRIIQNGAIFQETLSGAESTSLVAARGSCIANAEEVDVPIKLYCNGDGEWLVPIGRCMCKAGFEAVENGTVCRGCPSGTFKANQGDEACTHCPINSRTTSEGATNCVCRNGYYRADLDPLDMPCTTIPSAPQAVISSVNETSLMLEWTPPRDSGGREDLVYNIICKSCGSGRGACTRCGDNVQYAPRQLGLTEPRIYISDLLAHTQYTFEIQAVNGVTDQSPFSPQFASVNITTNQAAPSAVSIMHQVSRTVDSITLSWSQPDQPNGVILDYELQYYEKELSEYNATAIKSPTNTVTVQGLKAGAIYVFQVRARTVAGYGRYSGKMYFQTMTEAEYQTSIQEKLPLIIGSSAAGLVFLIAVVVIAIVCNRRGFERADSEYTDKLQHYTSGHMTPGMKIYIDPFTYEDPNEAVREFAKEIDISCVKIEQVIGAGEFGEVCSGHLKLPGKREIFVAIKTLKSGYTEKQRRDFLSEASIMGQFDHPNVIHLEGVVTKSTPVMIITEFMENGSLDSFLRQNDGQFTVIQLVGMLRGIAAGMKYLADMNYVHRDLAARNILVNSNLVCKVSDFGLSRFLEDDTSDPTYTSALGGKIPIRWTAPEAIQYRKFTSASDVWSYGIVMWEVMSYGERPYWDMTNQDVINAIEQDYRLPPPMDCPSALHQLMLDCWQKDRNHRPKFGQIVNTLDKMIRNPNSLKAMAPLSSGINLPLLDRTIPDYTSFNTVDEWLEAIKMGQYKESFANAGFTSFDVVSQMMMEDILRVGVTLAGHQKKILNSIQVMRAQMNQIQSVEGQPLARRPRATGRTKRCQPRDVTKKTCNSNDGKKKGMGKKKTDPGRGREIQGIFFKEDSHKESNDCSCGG

[9] = test system: c-Abl (mouse); assay: as above
[10] = test system: Fer (mouse); assay: as above
[11] = target: Fes (UniProt P07332); assay: as above
Chain of Fes (P07332 whole entry, looked up): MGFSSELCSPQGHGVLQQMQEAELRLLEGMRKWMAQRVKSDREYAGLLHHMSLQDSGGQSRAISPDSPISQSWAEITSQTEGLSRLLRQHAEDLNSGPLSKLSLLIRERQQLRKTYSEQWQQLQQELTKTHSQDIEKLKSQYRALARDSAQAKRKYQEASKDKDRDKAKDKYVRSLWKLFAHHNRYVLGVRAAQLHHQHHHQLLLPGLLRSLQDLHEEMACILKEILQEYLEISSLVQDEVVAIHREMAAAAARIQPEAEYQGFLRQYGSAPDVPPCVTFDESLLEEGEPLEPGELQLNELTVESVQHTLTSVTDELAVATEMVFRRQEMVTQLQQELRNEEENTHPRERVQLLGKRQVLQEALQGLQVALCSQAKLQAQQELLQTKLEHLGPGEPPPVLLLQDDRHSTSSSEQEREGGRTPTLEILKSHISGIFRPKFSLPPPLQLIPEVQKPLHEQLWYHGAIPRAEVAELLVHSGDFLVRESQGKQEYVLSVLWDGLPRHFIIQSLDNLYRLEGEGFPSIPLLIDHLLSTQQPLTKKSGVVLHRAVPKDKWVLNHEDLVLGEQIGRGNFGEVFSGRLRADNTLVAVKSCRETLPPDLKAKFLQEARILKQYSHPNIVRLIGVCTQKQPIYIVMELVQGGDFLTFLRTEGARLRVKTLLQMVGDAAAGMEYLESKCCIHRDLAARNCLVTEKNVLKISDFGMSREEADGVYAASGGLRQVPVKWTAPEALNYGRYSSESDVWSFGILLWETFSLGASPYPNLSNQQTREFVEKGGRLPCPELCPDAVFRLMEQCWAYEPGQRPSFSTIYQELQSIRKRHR

[12] = target: Hck (UniProt P08631); assay: as above
Chain of Hck (P08631 whole entry, looked up): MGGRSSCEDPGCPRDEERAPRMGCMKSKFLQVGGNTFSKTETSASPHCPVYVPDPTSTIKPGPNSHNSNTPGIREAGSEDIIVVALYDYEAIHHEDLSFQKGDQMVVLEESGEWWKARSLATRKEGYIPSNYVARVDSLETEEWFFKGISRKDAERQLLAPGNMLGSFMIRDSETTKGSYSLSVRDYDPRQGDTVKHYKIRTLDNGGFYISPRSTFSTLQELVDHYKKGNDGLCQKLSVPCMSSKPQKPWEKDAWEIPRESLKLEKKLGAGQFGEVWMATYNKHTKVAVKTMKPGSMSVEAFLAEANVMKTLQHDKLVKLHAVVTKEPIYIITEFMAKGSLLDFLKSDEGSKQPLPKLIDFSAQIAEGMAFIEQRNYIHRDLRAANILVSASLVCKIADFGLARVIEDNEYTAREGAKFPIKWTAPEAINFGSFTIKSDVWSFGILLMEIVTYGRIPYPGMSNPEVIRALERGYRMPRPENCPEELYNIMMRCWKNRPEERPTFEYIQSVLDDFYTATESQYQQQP

[13] = target: FGFR1 (UniProt P11362); assay: as above
Chain of FGFR1 (P11362 whole entry, looked up): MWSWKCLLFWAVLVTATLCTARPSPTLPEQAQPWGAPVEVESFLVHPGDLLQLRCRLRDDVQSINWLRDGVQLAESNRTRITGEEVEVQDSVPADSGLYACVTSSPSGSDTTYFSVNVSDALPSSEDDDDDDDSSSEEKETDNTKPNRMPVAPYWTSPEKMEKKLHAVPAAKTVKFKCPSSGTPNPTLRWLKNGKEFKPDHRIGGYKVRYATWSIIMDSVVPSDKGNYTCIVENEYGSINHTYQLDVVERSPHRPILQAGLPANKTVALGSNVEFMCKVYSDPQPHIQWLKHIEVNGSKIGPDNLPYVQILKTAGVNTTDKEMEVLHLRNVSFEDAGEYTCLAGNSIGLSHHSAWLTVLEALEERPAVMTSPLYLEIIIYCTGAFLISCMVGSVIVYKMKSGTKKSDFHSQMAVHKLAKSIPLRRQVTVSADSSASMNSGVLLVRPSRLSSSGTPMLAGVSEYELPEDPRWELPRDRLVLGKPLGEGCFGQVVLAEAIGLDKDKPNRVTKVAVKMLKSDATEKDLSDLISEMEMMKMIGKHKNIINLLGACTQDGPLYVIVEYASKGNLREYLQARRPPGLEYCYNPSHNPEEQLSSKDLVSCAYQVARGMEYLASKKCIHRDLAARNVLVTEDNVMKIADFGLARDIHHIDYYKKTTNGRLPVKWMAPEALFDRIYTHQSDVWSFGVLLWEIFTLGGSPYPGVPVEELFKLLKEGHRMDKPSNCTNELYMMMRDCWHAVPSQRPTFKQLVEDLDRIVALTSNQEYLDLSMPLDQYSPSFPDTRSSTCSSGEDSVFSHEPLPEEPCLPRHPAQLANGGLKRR

[14] = target: MERTK (UniProt Q12866); assay: as above
[15] = test system: AncSZ; assay: as above
[16] = target: FGFR3 (UniProt P22607); assay: as above
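For SH2 binding enrichment of the phosphorylated peptide, bacterial display in this document: peptide library displayed on the E. coli surface as eCPX fusions, selected cells deep-sequenced, score is each peptide's frequency after selection divided by its frequency in the input.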
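For phosphorylation enrichment, bacterial display in this document: 11-residue human phosphosite peptides and single-mutation variants displayed on the E. coli surface, counted by deep sequencing, each peptide's frequency after selection divided by its frequency in the unselected input library; frequency after pTyr selection over input frequency; kinase dosed for 20-30% of maximal phosphorylation in three min.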

Sequence	SH2 binding enrichment [1]	SH2 binding enrichment [2]	SH2 binding enrichment [3]	phosphorylation enrichment [4]	phosphorylation enrichment [5]	phosphorylation enrichment [6]	phosphorylation enrichment [7]	phosphorylation enrichment [8]	phosphorylation enrichment [9]	phosphorylation enrichment [10]	phosphorylation enrichment [11]	phosphorylation enrichment [12]	phosphorylation enrichment [13]	phosphorylation enrichment [14]	phosphorylation enrichment [15]	phosphorylation enrichment [16]
HRNNNYEPNLF [BRCA2_Y57_K53R]	0.651	0.668	0.674	0.419	1.07	0.583	1.06	0.858	0.509	0.552	0.75	0.465	0.54	0.617	0.684	0.662
RLSPEYKQNEI [GJB1_Y243]	0.933	0.817	0.749	0.72	0.468	0.403	0.59	0.555	0.821	0.491	0.682	0.584	0.481	0.621	0.82	0.446
TVQVAYYTVMM [SPATA17_Y83_M86V]	0.812	0.925	1.06	2.09	2.96	1.59	2.57	1.61	0.972	1.59	1.5	1.74	5.72	5.44	1.52	4.63
PDMHSYMVRFN [GRIN2D_Y732_YF]	0.548	0.474	0.909	1.15	0.488	0.629	1.14	0.69	0.811	0.494	0.931	0.641	0.711	0.651	0.991	0.807
NLVSEYQQYQD [TUBB3_Y422_D417N]	0.698	0.673	0.831	0.541	0.582	0.592	0.968	0.693	0.679	0.508	1.05	0.606	0.531	0.44	1.37	0.726
MTYVFYRENLR [NLRP14_Y443]	1.22	0.72	1.24	1.36	1.03	0.823	1.48	0.741	0.791	0.521	1.4	1.03	0.653	0.514	1.64	0.967
KRGIDYILWHM [FRMD1_Y225_R228W]	1.5	1.08	1.56	0.414	0.765	0.5	1.06	0.824	0.788	0.591	1.15	0.536	1.33	0.548	1.04	0.984
ENEGTYVCIAA [ADAMTSL3_Y1365_T1370A]	0.402	0.425	0.471	1.75	1.55	1.39	1.05	1.09	1.08	1.05	1.36	1.21	1.53	0.69	1.34	1.62
GFKVRYATGSI [FGFR1_Y210_W213G_YF]	1	0.706	1.28	0.343	0.473	0.417	0.651	0.404	0.541	0.362	0.689	0.44	0.516	0.455	0.628	0.471
NPPGMYPVTGP [LPP_Y346]	0.547	0.418	0.638	0.389	0.375	0.336	0.482	0.325	0.506	0.649	0.531	0.375	0.394	0.348	0.649	0.396
LARDIYKNDFF [ROS1_Y2110_YF]	0.748	0.44	1.41	2.29	0.962	1.47	2.38	0.933	1.31	1.14	2.15	0.599	0.68	1.57	2.31	0.592
SDFSRYARTSI [TERT_Y949_S948R_YF]	0.901	0.476	1.05	0.442	0.463	0.408	0.502	0.466	0.502	0.358	0.6	0.484	0.48	0.48	0.537	0.487
VATRWYRSPEL [CDKL5_Y177]	0.604	0.523	1.07	0.448	0.421	0.385	1	0.516	0.575	0.384	0.73	0.482	0.372	0.459	0.834	0.518
TESALYGCTIL [MAP3K21_Y724_V728I]	0.625	0.46	1	6.06	0.68	6	1.65	0.989	1.59	4.72	1.62	4.18	0.5	1.57	1.17	1.19
QSSALYEDRYL [ASS1_Y83]	0.493	0.653	0.711	1.2	3.12	0.997	1.01	2.45	0.61	7.79	1.12	4.44	0.56	1.1	1.15	0.74
YTNELYMMMRD [FGFR1_Y730_C725Y]	0.645	1.63	2.09	2.18	5.42	1.4	1.35	3.13	0.766	0.982	1.35	2.85	2.52	5.02	1.68	2.27
ADKAAYLQNLN [MYH1_Y389]	0.73	0.39	0.659	0.601	0.44	0.645	0.617	0.52	0.488	0.53	0.747	0.61	0.458	0.522	0.718	0.637
